According to patent US20260008817A1, “CYCLIC PEPTIDE OR SALT THEREOF, AND USES THEREOF” (FUJIFILM Corporation, priority 2023, published 2026):
Positions of bridges follow the written chain, without caps; N, C: chain ends. No end group written: not given here. COCH2 = acetyl group that carries the bridge

Key:
[1] = molecular target: Recombinant Human FGFR1 alpha (IIIc) Fc Chimera Protein, CF (R&D systems, 658-FR-050) (human) (UniProt P11362); assay: SPR grade, peptide 10 nmol/L over FGFR1-Fc; settings: scale: moleculesofcyclicpeptide/onemoleculeoffgfr
[2] = molecular target: T1, FGFR1 Protein, Human, Recombinant (His Tag) (Sino Biological, 10616-H08H) (human, UniProt P11362-7 22-374); assay: SPR grade, FGFR 1 umol/L over immobilized peptide
T1 construct: bought; flowed at 1 umol/L over immobilized peptide
T1 sequence (looked up): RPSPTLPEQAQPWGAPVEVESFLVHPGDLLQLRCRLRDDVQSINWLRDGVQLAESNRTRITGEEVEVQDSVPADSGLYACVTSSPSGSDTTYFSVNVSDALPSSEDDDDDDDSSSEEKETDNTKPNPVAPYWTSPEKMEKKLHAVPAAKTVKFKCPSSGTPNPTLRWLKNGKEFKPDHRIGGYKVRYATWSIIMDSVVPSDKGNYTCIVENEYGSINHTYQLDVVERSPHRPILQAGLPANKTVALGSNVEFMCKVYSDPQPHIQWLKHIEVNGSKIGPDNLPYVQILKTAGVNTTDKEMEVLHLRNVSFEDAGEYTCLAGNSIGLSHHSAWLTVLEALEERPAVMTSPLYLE
Description: (§1) A CM5 sensor chip (Cytiva, 29149603) was set in Biacore-T200 (manufactured by Cytiva) which is a surface plasmon resonance device, and an HBS-EP buffer (Cytiva, BR100826) was added as a running buffer at a flow rate of 10 μL/min to equilibrate the flow channel. Next, 70 μL of a mixed aqueous solution of 0.2 mol/L 1-(3-dimethylaminopropyl)-3-ethylcarbodiimide (EDC) and 0.05 mol/L N-hydroxysuccinimide (NHS) was added to activate the sensor chip. Then, a cyclic peptide prepared to 2 mg/mL in HBS-EP buffer was added thereto to perform immobilization at about 200 RU. Thereafter, the blocking treatment was performed with an ethanolamine solution. In addition, in another flow channel of the same sensor chip, blocking treatment was performed immediately after activation without […].
(§2) After various FGFRs (FGFR1 Protein, Human, Recombinant (His Tag) (Sino Biological, 10616-H08H), FGFR3 Protein, Human, Recombinant (ECD, His Tag) (Sino Biological, 16044-H08H), FGFR4 Protein, Human, Recombinant (His Tag) (Sino Biological, 10538-H08H)) diluted with HBS-EP to 1 μmol/L at 25° C. was added to each flow channel of the cyclic peptide-immobilized sensor chip prepared above, for 10 minutes, HBS-EP was allowed to flow as a running buffer for 30 minutes, and the binding of various FGFRs to the cyclic peptide was measured. […] The binding amount of the cyclic peptide was evaluated from the difference between the measured value of Biacore-T200 in the flow channel in which the cyclic peptide was immobilized and the measured value of Biacore-T200 in the flow channel in which the cyclic peptide was not immobilized, in a case where 1 μmol/L FGFR was allowed to flow.
(§3) The binding amount of FGFR evaluated above was normalized to the binding amount of FGFR molecules per one molecule of the cyclic peptide using the molecular weights of the cyclic peptide and FGFR, and the binding affinity to FGFR was evaluated according to the following evaluation criteria.

[3] = molecular target: T2, FGFR3 Protein, Human, Recombinant (ECD, His Tag) (Sino Biological, 16044-H08H) (human, UniProt P22607 23-375); assay: SPR grade, FGFR 1 umol/L over immobilized peptide
T2 construct: extracellular domain; bought; flowed at 1 umol/L over immobilized peptide
T2 sequence (looked up): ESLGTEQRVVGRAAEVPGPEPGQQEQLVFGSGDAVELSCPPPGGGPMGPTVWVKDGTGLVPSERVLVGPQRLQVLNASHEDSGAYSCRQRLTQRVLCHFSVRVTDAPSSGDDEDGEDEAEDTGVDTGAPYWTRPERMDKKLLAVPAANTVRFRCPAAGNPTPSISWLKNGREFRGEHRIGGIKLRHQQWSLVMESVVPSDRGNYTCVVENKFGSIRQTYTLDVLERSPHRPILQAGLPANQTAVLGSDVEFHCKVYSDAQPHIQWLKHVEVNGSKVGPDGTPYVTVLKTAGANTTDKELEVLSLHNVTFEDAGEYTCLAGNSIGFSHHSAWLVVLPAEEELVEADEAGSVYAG
Description: as §1, §2, §3

[4] = molecular target: T3, FGFR4 Protein, Human, Recombinant (His Tag) (Sino Biological, 10538-H08H) (human, UniProt P22455 22-369); assay: SPR grade, FGFR 1 umol/L over immobilized peptide
T3 construct: bought; flowed at 1 umol/L over immobilized peptide
T3 sequence (looked up): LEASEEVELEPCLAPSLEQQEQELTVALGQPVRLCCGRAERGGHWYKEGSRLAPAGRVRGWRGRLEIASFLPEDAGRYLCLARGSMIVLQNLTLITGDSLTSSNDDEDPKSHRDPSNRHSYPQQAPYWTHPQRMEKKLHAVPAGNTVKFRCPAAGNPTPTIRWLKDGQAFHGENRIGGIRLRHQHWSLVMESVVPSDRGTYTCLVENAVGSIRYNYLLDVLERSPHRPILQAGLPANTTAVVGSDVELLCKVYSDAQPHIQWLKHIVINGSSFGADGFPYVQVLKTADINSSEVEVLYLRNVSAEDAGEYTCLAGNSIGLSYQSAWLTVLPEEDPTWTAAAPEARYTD
Description: as §1, §2, §3

With ACVWTFDRHAQEISQALHK(COCH2)VKKK (thioether 2-19, chemically synthesized) [cyclic peptide SEQ ID NO: 335] the binding amount (SPR, molecules of cyclic peptide bound per one molecule of FGFR at 10 nmol/L peptide) [1] was over 0.7, the “binding amount (SPR, molecules of FGFR per one molecule of cyclic peptide, at 1 umol/L FGFR)” value [2] was ≥ 0.05 moleculesoffgfr/onemoleculeofthecyclicpeptide and the “binding amount (SPR, molecules of FGFR per one molecule of cyclic peptide, at 1 umol/L FGFR)” value [3] was 0.01 to 0.05 moleculesoffgfr/onemoleculeofthecyclicpeptide. For the same binder, the “binding amount (SPR, molecules of FGFR per one molecule of cyclic peptide, at 1 umol/L FGFR)” value [4] was ≥ 0.05 moleculesoffgfr/onemoleculeofthecyclicpeptide.
